Data as given in US20250026813A1 (published 2025).

Biological target: SARS-CoV-2 spike protein bearing furin mutation and truncation in retention sequence (on pseudoviral envelope) (SARS-CoV-2, UniProt P0DTC2 14-1273)
Test: cell-based or functional assay

Binder	PV neutralisation IC50 [nM]	PV neutralization % (Ab 1 ug/mL) [%]
YANG-1301 (antibody, V domains shown) VH: QVQLVESGGGVVQPGRSLRLSCAASGFTFSSYGMHWVRQAPGKGLEWVAVIWYDGSNKFYADSVKGRFTISRDNSKNTLYLQMNSLKAEDTAVYYCARDTWIGESDTSWLDPWGQGTLVTVSS VL: not shown	0.52	60.4
YANG-1302 (antibody, V domains shown) VH: QVQLVESGGGAVQPGRSLRLSCRASGFTFSSFGMNWVRQVPGKGLVWVAGIWYDGRNKYYADSVKGRFTISRENSKNMLYLQMNSLRAEDTAVYYCARDQDSGFDGNWFGPWGQGTMVTVSS VL: SYELTQPPSMSVSPGQTASITCSGDNLGDKYVCWYQQRPGQSPVMVIFQDSTRPSGIPERFSGSNSGNTATLTISGTQAMDEADYYCQAWDSNTAVFGGGTKLTVL	0.23	60.3
YANG-1303 (antibody, V domains shown) VH: QVQLVQSGTEMKEPGASVKVSCKASGYTFTNYGITWVRQAPGQGLEWMGWLNTNNGDTNYAQKLQGRVTMTTDTSTSTAYMELRSLRSDDTAVYYCARDSVTTYDYWGQGTLVTVSS VL: SYELTQPPSVSVSPGQTARITCSGDALPKKYAYWFQQKSAQAPVLVIYEDSKRPSGIPERFSGSSSGTMATLTINGAQVEDEAAYYCYSLDSSGNHWVFGGGTKLTVL		46.3
YANG-1304 (antibody, V domains shown) VH: QVQLQQWGAGLVKTSETLSLTCAVYGGSFNDHYWSWIRQPPGKGLEWIGEINHSGSTNYNPSLKSRVTMSLDTSKNQFSLKLRSLTAADTAMYYCAIEGIWGQGAMVTVSS VL: SYELTQPPSVSVSPGQTARITCSGDALPIKYVHWYQQKSGQAPVLVIYEDSKRPSGIPERISGSSSGTMATLTMSGAQVEDEADYYCYSTDSSGNHWVFGGGTKLTVL		41.5
YANG-1305 (antibody, V domains shown) VH: QVQLVESGGGVVQPGKSLRLSCAASGFAFSSFGMHWVRQAPGTGLEWLAIISFEGTKKYYADSMKGRITISRDNSKNTLYLQMNSLRAEDTAVYYCAADYGDYDDYYYGVHVWGQGTTVTVSS VL: DIQMTQSPSSLSASVGDRVTITCRASQGIANYLAWYQQKPGKVPKLLIYATSTLQSGVPSRFSGSGSGTDFTLTISSLQPEDVAIYYCQKYDSAPFTFGPGTKVDFK	0.42	60.5
YANG-1401 (antibody, V domains shown) VH: QVHLQESGPGLVKPSGTLSLTCAVSGGSFSQINWWSWVRQSPGKGLEWIGEIYHSGSTNYNPSLKSRVTMSVDKSKNQFSLALNSVTAADTAVYYCARGYYGDNWFDSWGQGTLVTVSS VL: DIQMTQSPSSLSASIGDRVTITCRASQGISNWLVWYQQKPEKAPKSLIYAASSLQSGVPSRFSGSGSGTDFTLTISSLHPEDFATYYCQQYSDYPLTFGGGTKVEIK	0.53	91.6
YANG-1402 (antibody, V domains shown) VH: EVQLVESGGGLIQPGGSLRLSCAASGVTVSSNYMNWVRQAPGKGLEWVSVIYSGGSTYYADSVKGRFTISRDNSKNTLYLQMNSLRVEDTAVYYCARDIGDYGMDVWGQGTTVTVSS VL: DIQLTQAPSFLSASVGDRLTITCWASQGISSYLAWYQQKPGKAPKILIYAASTLQSGVPSRFSGSGSGTEFTLTISSLQPEDFATYYCQQLNSYPLIFGGGTKVEIK		94.5
YANG-1403 (antibody, V domains shown) VH: QVQLVESGGGVVQPGRSLRLSCAASGFTFSNYGMHWVRQAPGKGLEWVAVIWYDGSNKYYADSVKGRFTISRDNSKNTLYLQMNSLRAEDTAVYFCVRETVTDGMDVWGQGTTVTVSL VL: NIQMTQSPSAMSASVGDRVTITCRARQDISNYLAWFQQKPGKVPKHLIYAASSLLSGVPSRFSGSGSGTEFTLTISSLQPEDFATYYCLHHNGYPWTFGQGTKVEIK		99.3
YANG-2101 (antibody, V domains shown) VH: EVQLVESGGGLVQPGGSLRLSCAASGFTFSLYDMHWVRQATGKGLEWVAGVGIAGDTIYPDSVKGRFTISRENAKNSFFLQMNRLRAGDTAVYYCVRGGTGTTFFDYWGQGVLVTVSS VL: DIQMTQSPSSLSASVGDRVTVTCRASQDITNYLAWFQQKPGKAPKSLIYSASSLQGGTPSKFSGSGSGTEFTLTISSLQPEDFATYYCQQYNSFPLTFGGGTKVEIK		100
YANG-2102 (antibody, V domains shown) VH: EVKLVESGGGLVQRGGSLRLSCAASGFTFSSHAMYWVRQIPGKGLEWVAGIGVAGDTFYPDSVKGRFTISRENANNSLSLQMDSLRTGDTAIYYCVRDGYSGSYPYHYYGMDVWGQGITVVVSS VL: DIQLTQSPSSLSASVGDSVTITCRASQGIDTYLAWFQQKPGKAPKSLIYVASSLQSGVPSKFSGSGSGTDFTLTISSLLPEDFATYYCQQYKSYPWTFGQGTKVEIK		99.4
YANG-2103 (antibody, V domains shown) VH: EAQLVESGGGLIQSGGSLRLSCIASGLTVNSNYMNWVRQAPGKGLEWVSVIYSGGTTFYADSVKGRFTISRDNSKNTLYLQMTSLRAEDTAVYYCAREGYGMDVWGQGTTVTVSS VL: SYVLTQPPSVSVAPGKTARINCGGNNFGSKSVHWYQQKPGQAPVLVIYYDSDRPSGIPERFSGSNSGNTATLTISRVEAGDEADYYCQVWDNSSDHFVFGAGTKVTVL		97.7
YANG-2104 (antibody, V domains shown) VH: EVKLVESGGGLVQPGGSLRLSCAASGFTFSSHAMYWVRQSPGKGLEWVSGIGVAGDTFYVDSVKGRFTISRENARNSLSLQMNSLRAGDTAVYYCARDGYSGTHPYHFYGMDVWGQGITVVVSS VL: DIQMTQSPSSLSASVGDSVTITCRASQDINTYLAWFQQKPGKAPKSLIYVASSLQSGVPSKFSGSGSGTDFTLTISSLLPEDFATYYCQQYKSYPWTFGQGTKVEIK		99.3
YANG-2105 (antibody, V domains shown) VH: EVQLVESGGGLIQPGGSLRLSCAASGLTVSSNYMNWVRQAPGKGLEWVSVIYSGGSTFYTDSVKGRFTISRDNSKNTLNLQMNSLRAEDTAVYYCARDLGIRGGMDVWGQGTTVTVSS VL: DIQLIQSPSFLSASVGDRVTITCWASQGISSYLAWYQQKPGKAPNLLIYAASTLQSGVPSRFSGSGSGTEFTLTISSLQPEDFATYYCQQLDGSLTFGGGTKVEIK		99.6
YANG-2106 (antibody, V domains shown) VH: QVQVVESGGGVVQPGRSLRLSCSASGFTFSTYGMHWVRQAPGKGLEWVAVIWYDGSNKYYADSVKGRFIISRDNSKNTLYLQMSSLRPDDTAVYYCVREGVADGMGVWGQGTTVTVSS VL: NIQMTQSPSAMSASVGDRVTITCRARQDISTYLAWFQQKPGKVPKHLIYAASTLLSGVPSRFGGSGSGTEFTLTITSLQPEDFATYYCLHHNNYPWTFGQGTKVEIK		93.3
YANG-2107 (antibody, V domains shown) VH: QVQLQESGPGLVKPSGTLSLTCAVSGGSIRSSNWWIWVRQSPGKGLEWIGEIYHGGNTNYNPSLKSRVTLSVDKSKNQFSLKLSSVTAADTAVYYCARALYDIGGVFDIWGQGTMVTVSS VL: QSALTQPASVSGSPGQSISISCTGTSSDIGGYNYVSWYQQHPGKAPKLMIYDVSERPSGVSNRFSGSKSGNTASLTISGLQAEDEGDYYCCSYAANSNVVFGGGTKLSVL	0.3	61.2
YANG-2108 (antibody, V domains shown) VH: QVQLQESGPGQVKPSGTLSLTCAVSGGSIRSSNWWIWVRQPPGKGLEWIGEIYHGGNTNYSPSLKSRVSISVDKSKNHFSLNLTSVTAADTAVYYCARALYDVGGVFDIWGQGTMVTVSS VL: QSALTQPASVSGSPGQSITISCTGSSSDVGGYNYVSWYQQHPGKAPKLMIYDVSERPSGVSNRFSGSKSGNTASLTISGLQAEDEGDYYCCSYAANSNVVFGGGTKLSVL	0.27	81.8
YANG-2109 (antibody, V domains shown) VH: QVQLVQSGAEVKKPGSSVKVSCKASGGTFSGYTISWIRQAPGQGLEWMGGIIPSFGSLNYGQKFQDRVSITTDELKSTVYMELSSLNSEDTAIYYCTRESITSGYYYGMAVWGQGTTVTVSS VL: DIQMTQSPSSLSASVGDRVTITCRASQGIRDDLGWFQQKPGKAPKRLISAASSLQSGVPSRFSGSGSGTEFTLTISSLQPEDFATYYCLQHNSYPLTFGGGTKVEIR	0.5	95
YANG-2110 (antibody, V domains shown) VH: EVQLVESGGGLIQPGGSLRLSCAASGFIVSRNYMSWVRQAPGKGLDWVSVIYSGGSTYYADSVKGRFTISRDNSKNTLYLQMNSLRAEDTAVYYCARSIAVAGEGLDSWGQGTLVTVSS VL: EIVMTQSPATLSLSPGDRATLSCRASQSVSNIFISWYQQKPGQAPRLLIYGASIRATDIPARFSGSGSGTDFTLTISSLQPEDFAIYFCQQDYNLPLTFGGGTKVEIK		99.9
YANG-2111 (antibody, V domains shown) VH: GVQLVESGGGLVQPGRSLRLSCAASGFTFDDYALHWVRQVPGKGLEWVSSISWNSDDLGYADSVEGRFTISRDNAKNSLYLQMSSLRTEDTALYYCVKDTRAHYDILAGYRGLDSWGQGTLVTVSS VL: DIVMTQSPLSLPVTPGEPASISCRSTQSLLHSNGYNFLDWYLQKPGQSPQLLIYLGSNRASGVPDRFSGSGSGTDFSLKISRVEAEDIGIYYCIQGLQTPITFGQGTRLEIK	1.33	86.8
YANG-2112 (antibody, V domains shown) VH: QVQLVQSGAEVKKPGASVKVSCKVSGFTLTHLSIHWVRQAPGRGLEWMGGFDPVDGQTVYAQNFQGRVTMTEDTSTDTANMDLNNLKSEDTAVYYCATGVVVPAAPYYYSSGMDVWGQGTTVTVSS VL: QSVLTQPPSTSGTPGQRVTISCSGSSSNIAKNYVYWYQQLPGTAPKLLIYRTNQRPSGVPDRFSGSRSGTSASLAISGLRSEDEATYYCATWDDTLSVIFGGGTNLTVL	0.65	88.6
YANG-2201 (antibody, V domains shown) VH: QEQLVESGGGVVQPGMSLRLSCAASGFTFSNYGMHWVRQSPGKGLEWVTFISYDGNNEYYVDSVKGRFTISRDNSKNTLFLQMNSLRAEDAAVYYCAKDRALNLYYFDSWGPGTLVTVSS VL: DIVMTQPPLSLPVTPGEPASISCRSSQSLLHNNAYNHLNWYLQKPGQSPQFLIYLGSNRASGVPDRFSGSGSGTDFTLKISRVEAEDVGVYYCMQSLQIPITFGQGTRLEIK		35.2
